The target of this experiment is T1, Cx43-WT (human connexin43, transiently expressed) (human, UniProt P17302 1-382).
T1 construct: human connexin43 (Cx43; gene GJA1) from the expression plasmid pcDNA I/Neo; source: HeLa cells negative for Cx43, transfected (pcDNA I/Neo), in lysate
As to the kind of experiment: co-IP; lysates of HeLa cells negative for Cx43, co-transfected 48 h with Cx43-WT or Cx43-P283A and HA-ITCH-WT, immunoprecipitated with anti-Cx43 antibodies cross-linked to protein A-Sepharose, 2 h at 4 °C; HA-ITCH detected by western blot with anti-HA and normalised to Cx43 in the immunoprecipitate; in one experiment cells treated with DMSO or bafilomycin A1 (200 nM) for the last 18 h; rabbit IgG as control. Particulars: partners not purified.

This is an account of results in article PMC11006747, “The E3 ubiquitin ligase ITCH negatively regulates intercellular communication via gap junctions by targeting connexin43 for lysosomal degradation” (Cellular and Molecular Life Sciences: CMLS, 2024).

T1 sequence (P17302 whole entry): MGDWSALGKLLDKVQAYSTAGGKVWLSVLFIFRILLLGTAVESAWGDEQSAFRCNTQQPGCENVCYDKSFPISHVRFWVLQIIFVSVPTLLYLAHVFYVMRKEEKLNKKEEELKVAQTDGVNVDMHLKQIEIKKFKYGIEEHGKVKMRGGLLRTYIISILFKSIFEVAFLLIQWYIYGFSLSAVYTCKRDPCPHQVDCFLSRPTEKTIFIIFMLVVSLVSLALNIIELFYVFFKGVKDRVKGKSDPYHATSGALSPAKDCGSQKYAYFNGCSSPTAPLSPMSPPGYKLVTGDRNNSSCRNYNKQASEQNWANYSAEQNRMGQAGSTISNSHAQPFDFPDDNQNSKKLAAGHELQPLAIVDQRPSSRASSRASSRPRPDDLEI

B1: HA-ITCH-wild type (enzyme)
chain: not shown
notes: E3 ubiquitin ligase ITCH, wild type, gene synthesised (GeneArt, Thermo Fisher); Isoform inferred only from the printed number of the catalytic cysteine (C830A mutant of the same cDNA); also called HA-ITCH-WT; source: HeLa cells negative for Cx43, transfected (pcDNA3.4-TOPO), in lysate
With B1, the “fold increase of co-immunoprecipitated HA-ITCH with bafilomycin A1 against DMSO” value is roughly 4 fold.
